This note sets out measurements from patent publication US20130101582A1, “Tiki1 and Tiki2, Wnt Inhibitors” (CHILDREN'S MEDICAL CENTER CORPORATION, priority 2010, published 2013).

One experiment concerns Wnt3a signaling. Kind of experiment: TOPFLASH reporter assay, Wnt3a co-transfected with Tiki1 or Tiki2 in HEK293T cells. The experiment is classed as cell-based, human. The text has this: Wnt3a and Tiki1 or Tiki2 were co-transfected. The TOPFLASH reading (normalized to Renilla) in Wnt3a alone was set as 100. DNA transfection amounts are shown per well in a standard 24-well plate format. Representative data from one of three independent experiments is shown.
The enlarged head phenotype by Tiki1 overexpression is indistinguishable from that by overexpression of Dkk1, a Wnt/LRP6 antagonist (MacDonald, B. T. et al., Dev Cell 17, 9-26 (2009); Glinka, A. et al., Nature 391, 357-362 (1998)). […] Thus Tiki1 likely acts at or upstream of Wnt receptors. […] Xenopus Tiki2, and human Tiki1 and Tiki2 also behaved as Wnt antagonists in Xenopus embryos, HEK293T cells (FIG. 2C) and mouse L cells (FIG. 5A).
(In general: A reporter such as luciferase makes a cellular process visible.)

A further experiment has as its system TOPFLASH reporter. Kind of experiment: TOPFLASH reporter activation by Wnt3a produced from Tiki2-expressing L cells. The experiment is classed as cell-based. As to conditions: Wnt3a CM. The text has this:
As Tiki proteins are related to bacterial proteins of unknown function, it was speculated that Tiki may antagonize Wnt signaling through a novel mechanism, possibly in an enzymatic fashion. Human Tiki2 was stably expressed in L cells or Wnt3a-expressing L cells (human Tiki1 was poorly expressed in L cells). […] In fact Wnt3a CM restored beta-catenin stabilization in Wnt3a-expressing cells that also expressed Tiki2 (FIG. 5A).

Experiment [1] addresses T1, Wnt3a (Mus musculus, UniProt P27467). Nature of the experiment: Metabolic labeling (az-15 / 35S) to quantify Wnt3a acylation in HEK293T cells. The class given is cell-based. Set-up: expressed in transfected cells; host or cells: HEK293T. Particulars: co-expressed with Wnt3a in HEK293T cells; versus GFP control. The procedure: FIG. 6E is a gel showing that Tiki2, but not the control GFP, reduces Wnt3a acylation in HEK293T cells (Top panel). The total amount of Wnt3a is constant (bottom panel).
Metabolic labeling was performed to quantify Wnt3a acylation. Wnt3a co-expressed with GFP (control) or hTiki2 in HEK293T cells was metabolically labeled with an azido-palmitic acid analog (az-15) and [^35S]-Methionine/Cysteine. Wnt3a secreted in the culture medium was immunoprecipitated and subjected to click chemistry reaction using the Rhodamine-labeled ALK reagent (ALK-Rho), which reacts with az-15 (Charron G et al., JACS 131, 4967, 2009). The fluorescent signal indicates the acylation amount of Wnt3a whereas ^35S signal indicates the total amount of Wnt3a protein (FIG. 6E). […] Thus the maximal reduction of acylation by Tiki2 is expected to be 50% if the deacylation is complete and there are only two acylation sites. The 31% reduction we observed is consistent with the possibility of three acylation sites, although it is also possible that there are only two acylation sites in Wnt3a, and Tiki2 deacylation of one of these two sites was incomplete in our experiment.

The target of experiment [2] is T1, Wnt3a. Kind of experiment: Acyl-biotinyl exchange (ABE) analysis of Wnt3a produced from Tiki2-expressing cells. The experiment is classed as cell-based. Set-up: expressed in transfected cells; host or cells: mouse L cells (Wnt3a-expressing); HEK293T. Particulars: compared to Wnt3a from control cells. The text has this:
FIG. 6C is a gel showing the results of Acyl-biotinyl exchange (ABE) analysis of control Wnt3a or Wnt3a produced from Tiki2-expressing cells. Biotinylation of Wnt3a secreted from Tiki2-expressing cells was much reduced compared to that of Wnt3a from control cells.
Biotinylation of Wnt3a secreted in the presence of Tiki2 was much reduced compared to that of Wnt3a from control cells (FIG. 6C). This reduction of available thioester linkage indicates depalmitoylation of Wnt3a at a cysteine residue, e.g., C77, in the presence of Tiki2

T1 sequence (P27467 19-352): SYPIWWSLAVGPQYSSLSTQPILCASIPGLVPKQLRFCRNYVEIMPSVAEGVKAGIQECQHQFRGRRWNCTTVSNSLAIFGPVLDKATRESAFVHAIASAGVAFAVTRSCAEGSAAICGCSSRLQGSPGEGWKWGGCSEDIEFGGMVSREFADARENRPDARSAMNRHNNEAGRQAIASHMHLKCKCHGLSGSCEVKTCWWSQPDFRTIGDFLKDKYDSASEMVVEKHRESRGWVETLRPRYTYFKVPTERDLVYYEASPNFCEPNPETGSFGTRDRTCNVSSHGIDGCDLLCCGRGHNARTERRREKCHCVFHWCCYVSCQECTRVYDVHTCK

B1: Tiki2: Human Tiki2 (XP 371250/LOC388630) (SEQ ID NO:2), expressed in L or HEK293T cells (protein, listed as Homo sapiens)
chain: MHAALAGPLLAALLATARARPQPPDGGQCRPPGSQRDLNSFLWTIRRDPPAYLFGTIHVPYTRVWDFIPDNSKAAFQASTRVYFELDLTDPYTISALASCQLLPHGENLQDVLPHELYWRLKRHLDYVKLMMPSWMTPAQRGKGLYADYLFNAIAGNWERKRPVWVMLMVNSLTERDVRFRGVPVLDLYLAQQAEKMKKTTGAVEQVEEQCHPLNNGLNFSQVLFALNQTLLQQESVRAGSLQASYTTEDLIKHYNCGDLSAVIFNHDTSQLPNFINTTLPPHEQVTAQEIDSYFRQELIYKRNERMGKRVMALLRENEDKICFFAFGAGHFLGNNTVIDILRQAGLEVDHTPAGQAIHSPAPQSPAPSPEGTSTSPAPVTPAAAVPEAPSVTPTAPPEDEDPALSPHLLLPDSLSQLEEFGRQRKWHKRQSTHQRPRQFNDLWVRIEDSTTASPPPLPLQPTHSSGTAKPPFQLSDQLQQQDPPGPASSSAPTLGLLPAIATTIAVCFLLHSLGPS
B1: in the experiment on Wnt3a signaling, the “Wnt3a signaling, TOPFLASH reporter” value was “inhibit Wnt3a signaling”. Besides, the “Activity of Wnt3a produced from Tiki2-expressing L cells in activation of TOPFLASH reporter expression” value in the experiment on TOPFLASH reporter is listed as “minimal activity”. In addition, in the experiment with Wnt3a [1], the “Reduction of Wnt3a acylation” value is on record as “about 31%”. For the same molecule, the “Biotinylation of secreted Wnt3a in ABE assay” value with Wnt3a [2] was “much reduced”.
